For assay [1], the system named is T47D cells. In words: Apoptosis - caspase-3/7 activity. It is filed as cell-based. The text has this:
(§1) Cells were harvested using Trypsin/EDTA and counted.

The test system of assay [2] is MCF7 cells. How it is done:
Activation of caspases during apoptosis was determined using the Apo-ONE homogenous caspase-3/7 assay (Promega Corp, Southampton UK), according to the manufacturer's instructions. Briefly, cells were grown to 90% confluence and washed three times with sterile PBS. Cells were harvested using Trypsin/EDTA and counted. Cells (10^4 per well) were seeded into a 96 well plate and incubated with R6313/G2 at concentrations from 0.1 to 3 μM in the presence or absence of 100 nmol/L angiotensin II, total volume 150 μl, for 24 and 48 hours. After incubation, caspase-3/7 Z-DEVD-R110 substrate (100 μl) was added to each well. Blank wells contained reagent alone, and controls omitted the antibody and/or angiotensin II. Fluorescence was measured every 2 hours over an 8 hour period using a Fluostar Optima spectrofluorimeter (BMG Laboratories, Offenburg Germany), with an excitation wavelength of 485 nm and an emission wavelength of 535 nm.

Assay [3] relates to breast cancer cells. The assay is described as follows: Caspase-driven apoptosis (summary statement). It is filed as cell-based.
From the text: as §1

Assay [4] has as its system MCF-7 cells. In words: In vitro hollow fiber assay. Particulars: MCF-7, in the presence of angiotensin II, 48 h. The class given is cell-based. How it is done:
(§2) Hollow Fiber procedures followed the method of Hollingshead. (Hollingshead et al Life Sci 57 131-41 (1995)).
(§3) Polyvinylidene difluoride (PVDF) hollow fibers (500 kDa cut-off, 1 mm inner diameter; Spectrum Europe B.V., Breda, Netherlands) were flushed through with 70% ethanol using a blunt 21 gauge needle and 10 ml syringe. Fibers were then immersed in 70% ethanol for 72 hours, flushed through again with 70% ethanol, then distilled water, and then autoclaved at 131° C. Finally, before loading cell suspensions, fibers were flushed through with RPMI 1640 culture medium. Cells (MCF-7, T47D, and MDA-MB-231) were introduced into fibers at densities of 2.5 to 3.0×10^6 cells/ml. Fibers were then heat-sealed at 2 cm intervals and placed in Petri dishes containing 3 ml of the cell appropriate medium.
(§4) Cell viability was measured using a modified MTT assay. Fibers were incubated in RPMI 1640 with 20% FBS containing 1 mg/ml MTT, and incubated at 37° C. under […], 5% CO2 for 4 hours. The reagent was aspirated, and 2 ml sterile filtered 2.5% protamine sulphate (0.9 g NaCl, 2.5 g protamine sulphate in 100 ml water) was added. Specimens were stored at 4° C. for a minimum of 24 hours in the dark to fix the formazan product. Fresh protamine sulphate (2.5%) was added and fibers were stored for a further 2 to 4 hours at 4° C. Each fiber was transferred to a well in a 24 well plate, cut in half and air-dried overnight, protected from light. Dimethyl sulphoxide (DMSO) (300 μl) was added to each well and the formazan product extracted. An aliquot (190 μl) from each well was transferred to a 96 well plate and absorbance read at 540 nm using a Multiskan Ascent photometric microplate reader (Thermo labsystem). Treated values were calculated as a percentage of the controls.

Assay [5] concerns MDA-MB-231 cells. In words: In vitro hollow fiber assay. It is filed as cell-based. To be noted: MDA-MB-231, in the presence of angiotensin II, 48 h. How it is done:
as §2, §3, §4

In assay [6] the test system is T47D cells. In words: In vitro hollow fiber assay. It is filed as cell-based. To be noted: in the presence of angiotensin II, 48 h. As to the method: as §2, §3, §4
Assay [7] in a line: Rat blood pressure (tail cuff). Details: species or system Female Wistar rats. To be noted: intact rats in vivo. How it is done:
Rats were chosen for this part of the study in view of their greater tractability in blood pressure assays. Female Wistar rats were first acclimatised to handling and the blood pressure equipment for 4-5 days before experimentation. Blood pressure in the conscious animals was determined using a Kent Scientific Corporation (Torrington Conn., USA) Coda 6+ tail cuff system in which the animals were held in warmed restrainers while blood pressures were assessed. Animals were first stabilised and their basal blood pressure taken before treatment. They were then briefly removed from the restrainers for sc injection of R6313/G2, 0.4 mg/kg in sterile PBS (0.1 ml). Controls received PBS alone. Blood pressures were then taken at intervals over a period of 1 hour, before restoring to cages. The procedures were repeated daily for 3 days.

The target of assay [8] is biotinylated peptide antigen (AT1 receptor) (Rattus norvegicus, UniProt P25095). In words: Quartz crystal microbalance binding (Attana 100). To be noted: 9 μg/ml, 100 second injection period; listed as 12D. As to the method: Data were obtained comparing the characteristics of binding of the scFv variants and IgM to immobilised peptide antigen using the Attana 100 Quartz Crystal Microbalance. This involved use of a streptavidin (0.1 mg/ml)-coated biotin “chip” (gold-plated quartz crystal in an Attana 100 Biosensor (Quartz crystal microbalance (QCM)) (Attana AB, Stockholm, Sweden). Peptide antigen corresponding to that sequence used to raise the original murine hybridoma, biotinylated at the C-terminus, was then run across the chip at a concentration of 4 μg/ml to create a binding target for scFvs and IgM that were subsequently run across the surface of the QCM chip. Attester software (Attana, Sweden) was used to monitor changes in resonance frequency of the QCM chip in response to binding of a test antibody to the antigen. The magnitude of deflection in Hz over the period of sample injection of 100 s in Hz/second was determined for each antibody at a concentration of 9 μg/ml. The rate at which the antibody was then released from the QCM chip was also measured in Hz/second from the straight-line portion of the biosensor trace as antibody gradually departed from the chip and as the resonance frequency of the chip decreased. Running buffer was PBS containing 0.005% Tween 20 (PBST) and this was also used to make antibody dilutions to give a final protein concentration of 9 μg/ml in each case. The Attana 100 was set up with a 50 μl injection loop and was running with a constant pump speed of 20 μl/min. Samples and PBST buffer controls were injected over 100 seconds giving a sample volume across the chip of 33 μl. 100 mM (6.6 μl volume) phosphoric acid solution was used to regenerate the strepavidin-antigen surface between individual experimental sample runs.

“Also recorded” adds a separate entry of the source. Like-named read-outs stand apart in the source and are kept apart here.

B1: R6313/G2: murine scFv analogue of the 6313/G2 anti-AT1 receptor monoclonal antibody variable domains, SEQ ID NO:15 (protein)
scFv: YAAQPAMAQVKLQQSGPELEKPGASVKISCKASGYSFTGYNMNWVKQSNGKSLEWIGNIDPYYGGTTYNQKFKGKATLTVDKSSSTAYMQLKSLTSEDSAVYYCAREVDYWGQGTTVTVSSGGGGSGGGGSGGGGSDIELTQSPASLAVSLGQRATISYRASKSVSTSGYSYMHWNQQKPGQPPRLLIYLVSNLESGVPARFSGSGSGTDFTLNIHPVEEEDAATYYCQHIRELTRSEGTKLEIKRAAAGAPVPY
modifications: 12D
Take B1: the “effect on angiotensin II inhibition of caspase-3/7 activity” value in assay [1] (100 nmol/L angiotensin II, 12 hours) was “inhibition was blocked”. Moreover, the caspase-3/7 activity entry in assay [1] (R6313/G2 alone, 48 hours) is given as “dose-dependent increase of caspase-3/7 activity”; in assay [2] (MCF7, R6313/G2 alone), “reduced caspase-3/7 activity”; in assay [2] (MCF7, in the presence of angiotensin II) it was “dose dependently increased caspase-3/7 activity”. Besides, the caspase-driven apoptosis result in assay [3] (angiotensin II omitted) was “omission of angiotensin blocks its effects”; in assay [3] (in the presence of up to 100 nmol angiotensin II per L), “enhances caspase-driven apoptosis”. Also, the “cell survival in hollow fibers in vitro” value in assay [4], in assay [5] and in assay [6] was “dose dependently inhibited survival” each time. In addition, the resting blood pressure entry in assay [7] was “does not reduce and may even increase resting blood pressure”. Besides, the “stress-induced increases in blood pressure” value in assay [7] was “significantly inhibits the stress-induced increases in blood pressure”. Besides, the “change in resonance frequency (apparent on-rate, Hz/second) compared with IgM” value in assay [8] is reported as “significantly greater increases in resonance frequency; also recorded: significantly greater changes in resonance frequency”.

The record behind these values is patent US8487082B2, “Synthetic scFv analogue to the 6313/G2 (anti angiotensin II type 1 receptor) monoclonal antibody variable regions” (Queen Mary & Westfield College, priority 2008, dated 2013).
